The source of these data is article PMC2824606.

pKd: −log10 of the molar value.

The target in the assay is yHsp90-Y24F, bacterially expressed and purified (N-terminally His6-tagged, pRSETA) (Saccharomyces cerevisiae) (UniProt P02829). The assay can be described thus: ITC.

As a reminder, the pKd is the Kd on a negative log10 scale, so that one unit is a factor of ten. Low values mean a high Kd, high ones a low Kd. In the case of “Aha1 used for the in vitro binding constants (from UniProt Q12449 1-350) (natural protein)”, the pKd is 5.74.
